One data set has as its target T1, FLAG-Alcalpha.
T1 chain 1: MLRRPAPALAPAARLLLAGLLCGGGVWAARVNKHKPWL
T1 chain 2: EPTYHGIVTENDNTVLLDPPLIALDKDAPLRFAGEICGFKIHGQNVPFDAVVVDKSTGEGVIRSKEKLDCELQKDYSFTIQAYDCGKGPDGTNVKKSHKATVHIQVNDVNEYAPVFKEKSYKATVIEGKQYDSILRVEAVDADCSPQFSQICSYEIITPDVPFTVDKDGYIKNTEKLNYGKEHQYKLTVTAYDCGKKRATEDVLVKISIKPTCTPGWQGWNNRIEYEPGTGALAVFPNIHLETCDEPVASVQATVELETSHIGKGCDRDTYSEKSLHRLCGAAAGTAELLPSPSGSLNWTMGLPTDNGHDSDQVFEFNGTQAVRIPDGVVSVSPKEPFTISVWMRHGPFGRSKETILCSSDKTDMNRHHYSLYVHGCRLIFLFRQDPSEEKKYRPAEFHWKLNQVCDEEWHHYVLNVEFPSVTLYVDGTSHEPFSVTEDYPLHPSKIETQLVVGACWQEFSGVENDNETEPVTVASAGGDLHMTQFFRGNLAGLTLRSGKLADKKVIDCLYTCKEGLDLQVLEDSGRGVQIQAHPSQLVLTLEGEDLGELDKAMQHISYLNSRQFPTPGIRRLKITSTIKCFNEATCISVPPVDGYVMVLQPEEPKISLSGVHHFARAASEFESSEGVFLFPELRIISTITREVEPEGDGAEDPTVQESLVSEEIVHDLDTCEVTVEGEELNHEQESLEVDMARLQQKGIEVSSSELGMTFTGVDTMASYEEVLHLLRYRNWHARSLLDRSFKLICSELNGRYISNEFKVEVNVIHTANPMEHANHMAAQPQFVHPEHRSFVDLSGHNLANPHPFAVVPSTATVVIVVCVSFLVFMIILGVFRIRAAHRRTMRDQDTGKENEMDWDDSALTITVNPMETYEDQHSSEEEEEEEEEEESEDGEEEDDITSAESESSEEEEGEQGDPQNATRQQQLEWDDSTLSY

The target of the next data set is T2, FLAG-Alcbeta.
T2 chain 1: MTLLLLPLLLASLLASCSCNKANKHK
T2 chain 2: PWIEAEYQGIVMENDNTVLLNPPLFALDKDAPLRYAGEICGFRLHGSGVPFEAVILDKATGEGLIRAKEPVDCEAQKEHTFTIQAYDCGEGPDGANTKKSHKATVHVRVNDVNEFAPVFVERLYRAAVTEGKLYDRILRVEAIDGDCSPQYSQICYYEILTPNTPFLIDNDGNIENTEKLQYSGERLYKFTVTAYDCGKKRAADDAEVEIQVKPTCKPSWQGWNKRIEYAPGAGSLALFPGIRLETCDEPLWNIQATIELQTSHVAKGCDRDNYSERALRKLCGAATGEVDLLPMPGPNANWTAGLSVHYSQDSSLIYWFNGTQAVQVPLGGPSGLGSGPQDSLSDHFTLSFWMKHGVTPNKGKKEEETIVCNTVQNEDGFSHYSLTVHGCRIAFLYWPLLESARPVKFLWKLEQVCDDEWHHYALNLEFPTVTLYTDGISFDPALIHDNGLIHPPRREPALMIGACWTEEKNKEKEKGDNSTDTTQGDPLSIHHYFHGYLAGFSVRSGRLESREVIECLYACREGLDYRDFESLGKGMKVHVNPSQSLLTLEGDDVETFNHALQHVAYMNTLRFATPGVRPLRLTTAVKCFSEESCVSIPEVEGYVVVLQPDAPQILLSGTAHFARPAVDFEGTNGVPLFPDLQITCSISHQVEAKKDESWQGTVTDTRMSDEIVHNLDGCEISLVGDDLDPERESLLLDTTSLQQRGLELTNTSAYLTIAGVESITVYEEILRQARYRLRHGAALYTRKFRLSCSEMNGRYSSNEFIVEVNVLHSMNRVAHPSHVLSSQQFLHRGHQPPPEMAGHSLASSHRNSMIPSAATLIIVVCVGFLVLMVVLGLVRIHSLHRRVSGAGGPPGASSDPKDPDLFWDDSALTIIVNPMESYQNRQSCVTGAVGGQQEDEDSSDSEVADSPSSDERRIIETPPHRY

The target in the next data set is T3, FLAG-Alcgamma.
T3 chain 1: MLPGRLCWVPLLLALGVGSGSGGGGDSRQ
T3 chain 2: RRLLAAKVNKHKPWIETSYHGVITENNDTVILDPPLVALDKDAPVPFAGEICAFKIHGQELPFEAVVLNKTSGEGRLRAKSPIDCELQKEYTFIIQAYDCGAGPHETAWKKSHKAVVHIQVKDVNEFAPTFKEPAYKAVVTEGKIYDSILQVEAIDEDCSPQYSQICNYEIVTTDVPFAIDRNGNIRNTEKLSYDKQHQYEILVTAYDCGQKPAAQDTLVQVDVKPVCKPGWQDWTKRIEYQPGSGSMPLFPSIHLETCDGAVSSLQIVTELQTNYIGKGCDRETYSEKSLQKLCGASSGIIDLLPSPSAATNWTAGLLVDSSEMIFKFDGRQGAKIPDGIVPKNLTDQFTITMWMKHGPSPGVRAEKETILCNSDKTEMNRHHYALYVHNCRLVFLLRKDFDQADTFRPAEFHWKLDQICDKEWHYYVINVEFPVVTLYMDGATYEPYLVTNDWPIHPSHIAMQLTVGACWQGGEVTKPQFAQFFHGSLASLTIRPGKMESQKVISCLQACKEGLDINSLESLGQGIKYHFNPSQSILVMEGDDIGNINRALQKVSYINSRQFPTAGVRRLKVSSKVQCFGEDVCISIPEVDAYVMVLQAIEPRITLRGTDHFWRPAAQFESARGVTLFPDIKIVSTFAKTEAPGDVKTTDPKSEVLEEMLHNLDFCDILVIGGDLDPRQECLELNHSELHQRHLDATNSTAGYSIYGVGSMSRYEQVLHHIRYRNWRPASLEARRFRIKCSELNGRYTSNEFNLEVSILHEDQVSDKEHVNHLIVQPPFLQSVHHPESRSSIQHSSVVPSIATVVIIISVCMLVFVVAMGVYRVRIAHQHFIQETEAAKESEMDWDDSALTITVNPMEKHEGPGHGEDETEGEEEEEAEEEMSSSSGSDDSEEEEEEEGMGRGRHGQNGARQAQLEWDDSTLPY

Sequence of FLAG-APP, P05067 (P05067 whole entry, looked up): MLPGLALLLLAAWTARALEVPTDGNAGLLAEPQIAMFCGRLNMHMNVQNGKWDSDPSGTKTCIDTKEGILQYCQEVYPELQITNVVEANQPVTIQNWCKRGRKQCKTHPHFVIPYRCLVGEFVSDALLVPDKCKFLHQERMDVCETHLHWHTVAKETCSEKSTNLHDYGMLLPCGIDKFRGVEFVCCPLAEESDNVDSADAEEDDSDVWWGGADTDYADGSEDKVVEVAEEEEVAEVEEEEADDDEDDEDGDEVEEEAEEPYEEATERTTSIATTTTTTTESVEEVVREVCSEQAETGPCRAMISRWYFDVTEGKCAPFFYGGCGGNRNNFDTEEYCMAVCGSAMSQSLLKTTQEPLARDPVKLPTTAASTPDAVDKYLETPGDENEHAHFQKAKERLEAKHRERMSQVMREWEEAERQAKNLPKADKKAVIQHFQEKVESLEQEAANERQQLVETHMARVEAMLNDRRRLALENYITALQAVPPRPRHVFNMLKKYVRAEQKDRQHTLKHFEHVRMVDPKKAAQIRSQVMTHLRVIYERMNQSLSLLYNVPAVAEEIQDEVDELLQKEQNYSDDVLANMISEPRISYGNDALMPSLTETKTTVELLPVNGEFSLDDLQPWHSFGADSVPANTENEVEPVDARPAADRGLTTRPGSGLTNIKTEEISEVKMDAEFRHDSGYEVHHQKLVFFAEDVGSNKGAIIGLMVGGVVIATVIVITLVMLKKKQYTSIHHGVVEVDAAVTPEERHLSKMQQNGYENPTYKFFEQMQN

B1: ADAM10 (endogenous, mouse embryonic fibroblasts) (protein)
chain: TTLAERNTCQLYIQTDHLFFKYYGTREAVIAQISSHVKAIDTIYQTTDFSGIRNISFMVKRIRINTTSDEKDPTNPFRFPNIGVEKFLELNSEQNHDDYCLAYVFTDRDFDDGVLGLAWVGAPSGSSGGICEKSKLYSDGKKKSLNTGIITVQNYGSHVPPKVSHITFAHEVGHNFGSPHDSGTECTPGESKNLGQKENGNYIMYARATSGDKLNNNKFSLCSIRNISQVLEKKRNNCFVESGQPICGNGMVEQGEECDCGYSDQCKDDCCFDANQPEGKKCKLKPGKQCSPSQGPCCTAQCAFKSKSEKCRDDSDCAKEGICNGFTALCPASDPKPNFTDCNRHTQVCINGQCAGSICEKYDLEECTCASSDGKDDKELCHVCCMKKMAPSTCASTGSLQWSKQFSGRTITLQPGSPCNDFRGYCDVFMRCRLVDADGPLARLKKAIFSPQLYENIAEWIVAHWWAVLLMGIALIMLMAGFIKICSVHTPSSNPKLPPPKPLPGTLKRRRPPQPIQQPPRQRPRESYQMGHMRR
With B1, the “amount of sAPP secreted into the medium (western blot of anti-FLAG immunoprecipitate), ADAM10 (-/-) against (+/-) MEFs” value with FLAG-APP, P05067 was “ADAM (-/-) MEFs secreted sAPP (lane 2 of FIG. 1D) 40% lower than ADAM (+/-) MEFs”. Also, the “amount of sAlcalpha secreted into the medium (western blot of anti-FLAG immunoprecipitate), ADAM10 (-/-) against (+/-) MEFs” value with FLAG-Alcalpha was “The amounts of sAlcalpha, sAlcbeta, and sAlcgamma secreted by ADAM (-/-) MEFs were as low as that of APP”. The “amount of sAlcbeta secreted into the medium (western blot of anti-FLAG immunoprecipitate), ADAM10 (-/-) against (+/-) MEFs” value with FLAG-Alcbeta is “The amounts of sAlcalpha, sAlcbeta, and sAlcgamma secreted by ADAM (-/-) MEFs were as low as that of APP”. Further, the “amount of sAlcgamma secreted into the medium (western blot of anti-FLAG immunoprecipitate), ADAM10 (-/-) against (+/-) MEFs” value in the data set with FLAG-Alcgamma was “The amounts of sAlcalpha, sAlcbeta, and sAlcgamma secreted by ADAM (-/-) MEFs were as low as that of APP”.

For the origin of these results see patent US20100323375.
